This note sets out measurements from patent publication US20100011462A1, “FLAVIN MONOOXYGENASES AND TRANSCRIPTION FACTORS INVOLVED IN GLUCOSINOLATE BIOSYNTHESIS” (University of Copenhagen, priority 2006, published 2010).

One test concerns the target T1, At1g12140 (Arabidopsis thaliana, UniProt A8MRX0).
T1 construct: made in house; host or cells: E. coli
T1 sequence (A8MRX0 1-459): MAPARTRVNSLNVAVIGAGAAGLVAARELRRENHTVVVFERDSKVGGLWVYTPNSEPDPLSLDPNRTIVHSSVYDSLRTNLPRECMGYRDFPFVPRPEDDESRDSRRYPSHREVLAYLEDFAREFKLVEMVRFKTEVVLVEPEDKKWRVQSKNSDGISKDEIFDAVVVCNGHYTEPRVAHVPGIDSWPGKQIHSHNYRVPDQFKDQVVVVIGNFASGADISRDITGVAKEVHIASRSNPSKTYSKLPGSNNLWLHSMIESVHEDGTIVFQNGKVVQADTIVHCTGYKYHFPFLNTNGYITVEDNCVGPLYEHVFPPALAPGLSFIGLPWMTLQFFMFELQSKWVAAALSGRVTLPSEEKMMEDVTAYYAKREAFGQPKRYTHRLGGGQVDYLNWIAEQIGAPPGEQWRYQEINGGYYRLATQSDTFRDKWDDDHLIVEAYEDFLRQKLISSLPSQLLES
The test can be described thus: Heterologous expression of At1g12140 in E. coli, desulfo-glucosinolate substrate mix. The following applies: desulfo-glucosinolates from Arabidopsis Col-0 seeds as substrate mix. Type of test: biochemical. The source says: (§1) FIG. 15—Heterologous expression of At1g12140 in E. coli using desulfo-glucosinolates from glucosinolates from Arabidopsis Col-0 seeds as substrate mix.

Test [1] is described as follows: Activity of FMOs of the invention in E. coli or in seeds using a variety of substrates. It is filed as biochemical, Arabidopsis thaliana. The following applies: for S-oxygenation activity: desulfo and intact glucosinolates; for substrate specificity: methylthio glucosinolates in Arabidopsis.
Description: FIG. 11—Heterologous expression of At1g62560 in E. coli using 4MTB as substrate, with an empty vector as control.
FIG. 13—Heterologous expression of At1g62540 in E. coli using 4MTB as substrate, with an empty vector as control.
as §1
FIG. 17—Heterologous expression of At1g62570 in E. coli using desulfo-glucosinolates from glucosinolates from Arabidopsis Col-0 seeds as substrate mix, with an empty vector as control.
FIGS. 11-18 show the activity of At1g62560, At1g65860, At1g62540, At1g12140 and At1g62570 in E. coli or in seeds using a variety of substrates.

Test [2] concerns Arabidopsis thaliana Col-0. Briefly: 4MTB and 4MSB levels in At1g65860 and At1g62560 overexpression lines. The following applies: expressed constitutively. It is filed as in vivo. The method, then:
FIG. 5—4-methylthiobutyl glucosinolate levels in rosette leaves from 24 day old wild type columbia and transgenic At1g65860 and At1g62560 overexpression lines. Quantities are given in nmol/mg fresh weight ±one standard deviation and are the mean of extractions from four individual plants. Two independent lines were analysed for each construct. The lines H and AT for 35S overexpression of At1g65860 and line 9 and 11 for 35S overexpression of At1g62560.
FIG. 12—4-6 fold increase in 4MSB levels in seeds in overexpressors of At1g62560 and At1g65860.
In another separate experiment a mix of heterozygous and homozygous 35S:At1g62560 and 35S:At1g65860 as well as Arabidopsis thaliana, ecotype Columbia, were used.
Three-four leaves (20-80 mg) were harvested from each plant and the material freeze-dried O/N. After adding one ball bearing to each tube, the tissue was homogenized by shaking at a frequency of 30 s^−1 for one min on a Retsch Mixer Mill 303 (Retsch, Haan, Germany). 250 μl of 85% methanol was added to each tube and the entire box vortexed for 30 s. For glucosinolate extraction from seeds (10-20 mg) 250 μl of 85% methanol was added before homogenization. The samples were mixed for two minutes by vortexing. […]

Regarding `CSCCCCCCCCC(=NOS(=O)(=O)O)S[C@@H]1O[C@H](CO)[C@@H](O)[C@H](O)[C@H]1O` [8MTO, 8-methylthiooctyl glucosinolate], the S-oxygenation activity entry on At1g12140 is listed as “high activity”.

B1: At1g62560: flavin-containing monooxygenase (FMO) from A. thaliana, SEQ ID NO 2; also its overexpression in planta (protein, listed as Arabidopsis thaliana)
chain: MAPAQNQITSKHVAVIGAGPAGLITSRELRREGHSVVVFEREKQVGGLWVYTPKSDSDPLSLDPTRSKVHSSIYESLRTNVPRESMGVRDFPFLPRFDDESRDARRYPNHREVLAYIQDFAREFKIEEMIRFETEVVRVEPVDNGNWRVQSKNSGGFLEDEIYDAVVVCNGHYTEPNIAHIPGIKSWPGKQIHSHNYRVPDPFENEVVVVIGNFASGADISRDIAKVAKEVHIASRAREPHTYEKISVPQNNLWMHSEIDTTHEDGSIVFKNGKVIFADSIVYCTGYKYNFPFLETNGYLRIDEKRVEPLYKHVFPPALAPGLAFVGLPAMGIVFVMFEIQSKWVAAVLSGRVTLPSTDKMMEDINAWYASLDALGIPKRHTHTIGRIQSEYLNWVAKESGCELVERWRGQEVDGGYLRLVAHPETYRDEWDDDELIEEAYNDFSRKKLISVDPSYYLENGR
B1: in test [1], the S-oxygenation activity result is “S-oxygenation activity” and the substrate specificity entry is recorded as “broad specificity towards all methylthio (MT) glucosinolates”. Also, the 4-methylthiobutyl glucosinolate levels result in test [2] was “reduced”.

B2: At1g65860: flavin-containing monooxygenase (FMO) from A. thaliana, SEQ ID NO 4; also its overexpression in planta (protein, listed as Arabidopsis thaliana)
chain: MAPTQNTICSKHVAVIGAGAAGLVTARELRREGHTVVVFDREKQVGGLWNYSSKADSDPLSLDTTRTIVHTSIYESLRTNLPRECMGFTDFPFVPRIHDISRDSRRYPSHREVLAYLQDFAREFKIEEMVRFETEVVCVEPVNGKWSVRSKNSVGFAAHEIFDAVVVCSGHFTEPNVAHIPGIKSWPGKQIHSHNYRVPGPFNNEVVVVIGNYASGADISRDIAKVAKEVHIASRASESDTYQKLPVPQNNLWVHSEIDFAHQDGSILFKNGKVVYADTIVHCTGYKYYFPFLETNGYININENRVEPLYKHVFLPALAPSLSFIGLPGMAIQFVMFEIQSKWVAAVLSGRVILPSQDKMMEDIIEWYATLDVLGIPKRHTHKLGKISCEYLNWIAEECHCSPVENWRIQEVERGFQRMVSHPEIYRDEWDDDDLMEEAYKDFARKKLISSHPSYFLES
Regarding B2, in test [1], the S-oxygenation activity result was “S-oxygenation activity” and the substrate specificity entry is on record as “broad specificity towards all methylthio (MT) glucosinolates”. Besides, the 4-methylthiobutyl glucosinolate levels result in test [2] is on record as “reduced”.
